Test results: paper PMC11808424

Molecular target: soluble His‐tagged human LRP4 (low‐density lipoprotein receptor‐related protein 4) (human) (UniProt O75096)
Assay: SPR

UniProt O75096, sequence (O75096 21-1725): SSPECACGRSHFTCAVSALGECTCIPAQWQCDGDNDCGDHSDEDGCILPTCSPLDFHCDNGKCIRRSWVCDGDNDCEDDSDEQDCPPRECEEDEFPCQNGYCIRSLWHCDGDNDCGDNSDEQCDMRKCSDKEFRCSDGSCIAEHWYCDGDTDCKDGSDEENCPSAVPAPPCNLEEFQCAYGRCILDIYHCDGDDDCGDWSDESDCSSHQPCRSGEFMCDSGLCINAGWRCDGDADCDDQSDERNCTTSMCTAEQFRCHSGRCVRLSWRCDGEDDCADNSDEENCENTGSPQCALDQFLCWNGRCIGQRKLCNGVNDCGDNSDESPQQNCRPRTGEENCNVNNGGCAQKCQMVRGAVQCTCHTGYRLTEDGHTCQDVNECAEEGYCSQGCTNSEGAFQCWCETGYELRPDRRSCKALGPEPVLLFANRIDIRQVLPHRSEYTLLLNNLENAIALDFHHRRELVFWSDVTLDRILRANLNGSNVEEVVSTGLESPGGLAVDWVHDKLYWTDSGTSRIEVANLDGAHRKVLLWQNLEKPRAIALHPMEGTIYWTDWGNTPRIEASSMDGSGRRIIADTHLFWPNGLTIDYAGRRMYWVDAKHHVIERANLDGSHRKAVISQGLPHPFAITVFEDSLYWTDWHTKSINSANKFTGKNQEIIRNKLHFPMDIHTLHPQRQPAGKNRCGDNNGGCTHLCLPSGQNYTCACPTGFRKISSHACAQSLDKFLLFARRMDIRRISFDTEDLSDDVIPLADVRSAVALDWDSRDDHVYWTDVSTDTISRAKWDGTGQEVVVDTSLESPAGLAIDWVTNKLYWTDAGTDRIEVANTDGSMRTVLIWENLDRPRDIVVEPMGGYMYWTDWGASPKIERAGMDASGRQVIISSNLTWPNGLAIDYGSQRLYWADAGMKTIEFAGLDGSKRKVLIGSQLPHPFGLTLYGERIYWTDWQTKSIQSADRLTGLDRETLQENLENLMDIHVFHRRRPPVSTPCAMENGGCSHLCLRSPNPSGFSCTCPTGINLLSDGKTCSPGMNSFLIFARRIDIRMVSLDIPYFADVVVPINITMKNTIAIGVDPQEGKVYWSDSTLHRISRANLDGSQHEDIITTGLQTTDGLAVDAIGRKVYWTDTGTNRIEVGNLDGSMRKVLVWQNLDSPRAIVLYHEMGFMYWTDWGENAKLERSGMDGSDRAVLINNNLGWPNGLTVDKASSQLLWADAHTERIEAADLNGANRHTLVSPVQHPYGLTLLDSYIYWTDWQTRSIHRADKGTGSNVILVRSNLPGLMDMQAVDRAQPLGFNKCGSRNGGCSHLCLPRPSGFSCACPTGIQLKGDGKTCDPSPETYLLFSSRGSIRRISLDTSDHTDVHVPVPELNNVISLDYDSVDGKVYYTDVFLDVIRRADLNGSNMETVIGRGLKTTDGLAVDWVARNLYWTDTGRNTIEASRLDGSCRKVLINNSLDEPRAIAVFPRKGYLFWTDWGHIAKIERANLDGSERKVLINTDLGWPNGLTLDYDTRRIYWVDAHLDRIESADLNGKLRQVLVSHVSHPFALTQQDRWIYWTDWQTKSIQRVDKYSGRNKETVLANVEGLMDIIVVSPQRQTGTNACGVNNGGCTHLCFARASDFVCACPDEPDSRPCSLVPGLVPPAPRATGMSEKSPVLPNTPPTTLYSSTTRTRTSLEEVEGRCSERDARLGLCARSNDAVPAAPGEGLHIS

Substance	Kd [µM]
purified soluble Scl_(K75E) (natural protein)	35.9
purified soluble Scl_(K75Q) (natural protein)	20.2
purified soluble Scl_(V136D) (natural protein)	7.52
